Publication PMC5126634

Key:
His51 [1] = biological target: His51 (UniProt position 1526, FHTMWHVTRGA); test: kinetics; conditions: 37 °C, multicomponent buffer: 100 mM acetate, 100 mM MES, 100 mM HEPES, 100 mM CHES, 100 mM CAPS
His51 [2] = test: kinetics; conditions: 37 °C, multicomponent buffer: 100 mM acetate, 100 mM MES, 100 mM HEPES, 100 mM CHES, 100 mM CAPS
[3] = enzyme-substrate complex (pKes1, from kcat)
[4] = free enzyme (pKe1, from kcat/Km)

Row | Substance | pKa (His51 [1]; [3]) | pKa (His51 [1]; [4]) | pKa (His51 [2]; [3]) | pKa (His51 [2]; [4])
1 | Dengue virus 2 NS2B-NS3 protease, glycine-linked (NS2BH-gly-NS3pro) (Dengue virus 2 (DENV2)) | 8.6 ± 0.4 | 8.1 ± 0.3 | – | –
2 | Dengue virus 2 NS2B-NS3 protease, unlinked complex (NS2BH + NS3pro) (Dengue virus 2 (DENV2)) | – | – | 8.2 ± 0.1 | 8.7 ± 0.7
